According to US20080311122A1, “Antagonists of Hmgb1 and/or Rage and Methods of Use Thereof” (Medimmune, LLC, priority 2005, published 2008):
Entries after “also recorded” stand apart in the source; their conditions may differ.

B1: E11: human anti-HMG1 antibody, recognizes HMG1 A-Box; VL/VH aa SEQ ID NO: 24/26 (antibody, listed as Homo sapiens, V domains shown)
VH: EVQLLESGGGLVQPGGSLRLSCAASGFTFSRYQMNWVRQAPGKGLEWVSSISPSGGHTHYADSVKGRFTISRDNSKNTLYLQMNSLRAEDTAVYYCAKDGRQGKISTVDHWGQGTLVTVSS
VL: AQDIQMTQSPGTLSLSPGERATLSCRASQSVRSNFLAWYQQKPGQAPRLLIYGASRRASGIPDRFSGSGFGADFTLSISRLEPEDFAVYYCQQYGSSPNTFGQGSRVEIK
B2: S16: human anti-HMG1 antibody, ATCC PTA-6259; VL/VH aa SEQ ID NO: 13/15 (antibody, listed as Homo sapiens, V domains shown)
VH: EVQLLESGGGLVQPGGSLRLSCAASGFTFSWYSMLWVRQAPGKGLEWVSYISPSGGFTNYADSVKGRFTISRDNSKNTLYLQMNSLRAEDTAVYYCARWDYNSGWYYDHWGQGTLVTVSS
VL: AQDIQMTQSPDTLSLSPGERATLSCRASQSVNSRNLAWYQQKPGQAPRLLIYGASTRATGIPDRFSGSVSGTEFTLTISSLQPDDFATYYCQQYNSYFTFGQGTKLEIK

Experiments:
[1] = tested on: active CIA mouse model of arthritis; assay: Active collagen-induced arthritis (CIA) mouse model; assay type: in vivo; settings: percent protection, isotype control subtracted
Description: Induction of Active Collagen Induced Arthritis (CIA) in Mice: Six-eight week old male DBA/1J mice (Jackson Labs, Bar Harbor, Me.) were used. On day 0, isoflurane anesthetized animals were given an intradermal injection, at base of tail, of 200 μg bovine Type II collagen (CII) dissolved in 50 μl 0.1 N acetic acid and emulsified with an equal volume of complete Freund's adjuvant (Chondrex, Redmond, Wash.). Three weeks later on day 21 they were given a second similar intradermal injection of 100 μg of CII dissolved in 25 μl 0.1N acetic acid and emulsified with an equal volume of incomplete Freund's adjuvant (Difco, Detroit, Mich.).
Monitoring Disease in Mice: Beginning at day 14 all animals were observed daily to assess the status of the disease in their paws, which was done by assigning a qualitative clinical score to each of the paws. Every day, each animal has its 4 paws scored according to its state of clinical disease. The scoring is done by two observers, with at least one blinded. In addition, each mouse is weighed, to follow body weight changes, at the same time the paws are scored.
The grading scale for the 4 lateral digits of each paw are graded as involved or not involved, i.e., 1 or 0. For example, a maximally involved left rear paw would be scored: ankle=3, midfoot=3, digits=4 (clinical score=10 units) We would repeat this for each paw and sum the scores. […]

[2] = tested on: LPS+HMG1 induced TNF-a release (TLR4 signaling); assay: Inhibition of HMG1 mediated enhancement of TLR4 signaling, LPS+HMG1 TNF-a release; assay type: cell-based, mouse
[3] = tested on: AIA rat model of arthritis; assay: Adjuvant-induced arthritis (AIA) rat model; assay type: in vivo; settings: percent protection, isotype control subtracted
Description: Induction of Adjuvant Induced Arthritis […]: Six-eight week old female DA rats (Harlen) were used. On day 0, isoflurane anesthetized animals were given an intradermal injection, at base of tail, 0.75 mg of mycobacterium butyricum (Difco #0640-33-7) mixed in 100 μl incomplete Freund's adjuvant (Difco, Detroit, Mich.).
The human anti-HMG1 antibody G4, the A-box-Fc fusion and the huIgG isotype control were administered at 10 mg/kg, every 3 days, day 0-15. Methotrexate was administered at 0.8 mg/kg, every 6 days, day 0-15 and Renbrel was administered at either 2.5 mg/kg every two days, day 0-15 for treatment group 5 or at 4 mg/kg, every 3 days, day 0-15 for treatment group 6. […]
Monitoring Disease: Beginning at day 6 all animals were observed daily to assess the status of the disease in their paws, which was done by assigning a qualitative clinical score to each of the paws. Every day, each animal has its 4 paws scored according to its state of clinical disease. […] In addition, each mouse is weighed, to follow body weight changes, at the same time the paws are scored.
The joints of the 4 lateral digits of each paw are graded as involved or not involved, i.e., 1 or 0. For example, a maximally involved left rear paw would be scored: ankles=4, midfoot=4, MTP=4, PIP=4, DIP=4 (20 units). […]

Molecule | in vivo CIA active [1] [%] | inhibition of TNF-a release induced by LPS+HMG1 [2] | inhibition of signaling by LPS alone [2] | in vivo AIA [3] [%]
B1 | 0 | inhibits the release of TNF-a induced by LPS+HMG1; also recorded: could be blocked; also recorded: inhibit the release of TNFa induced by LPS+HMG1 | inhibit signaling by LPS alone | –
B2 | – | – | – | 0
